Assay results taken from the supplement of paper PMC9732359.
± gives the uncertainty stated by the source.

Assay: protein stability index of a GFP-peptide fusion (yeast GPS) (PSI 1-4); higher = more stable; sorted into four equal gates, so the index is relative within each strain
Conditions: pdr5∆
How it was run: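 Tiled yeast protein peptides of 17 residues were each joined downstream of GFP, on plasmids that also express Cherry. The pooled library was maintained in yeast, and mid-log cultures in leucine-free medium were sorted into four equal gates on the GFP/Cherry ratio. Plasmids from every gate were amplified by PCR and sequenced on Illumina, with barcodes linking reads to strains. The protein stability index of a peptide is its gate-number-weighted read frequency summed over the gates.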
With NIWGTVRTNRFDIIEES [ECM29] the protein stability index was 3.35 ± 0.12. NIYNFSPSERIEPLEIN [BRR2] showed a protein stability index of 2.78 ± 0.051. In the case of NKHLTTLVEIFLERKCV [SSN3], the protein stability index is reported as 2.73 ± 0.2. In the case of NKIINWEISNPDFLSKY [NUT1], the protein stability index is reported as 2.41 ± 0.045. For NKIRNLELPLCPYCYKK [SIR2], the protein stability index was 1.95 ± 0.062.

Same assay, conditions: san1∆
In the case of MGKGTPSFGKRHNKSHT [RPL37A], the protein stability index is reported as 3.1 ± 0.077. For MGQIATFIYFAYFLIIV [COB], the protein stability index was 1.16 ± 0.098. Sequence MGVRTFSQKEMAFNLLG [FAS2] has a protein stability index of 2.15 ± 0.083. Work on MHSYFIFKDLVTVFLFM [COB] yielded a protein stability index of 1.36 ± 0.056. MINDENYIINDIKKNNK [SRB8] showed a protein stability index of 3.42 ± 0.12. Sequence MINGRKLIKFETRNEDD [FAS1] has a protein stability index of 3.07 ± 0.047. For MINRLLLCALDRKDQDD [RPB2], the protein stability index was 2.11 ± 0.17. In the case of MIVYYKDAISFIKEIHK [YCS4], the protein stability index is reported as 2.57 ± 0.11. MKLVNFLKKLRNEQVTI [SMD1] showed a protein stability index of 2.04 ± 0.14. Work on MKPSEILSLIEEAAGTK [SMC2] yielded a protein stability index of 3.22 ± 0.083. Work on MKQLKFFKPLDYITEAV [SNU114] yielded a protein stability index of 1.86 ± 0.082. MKRMVAQWERSKLSQEF [SNF12] gave a protein stability index of 3.11 ± 0.23. MKTPSLTVYLEPGHAAD [RPO21] gave a protein stability index of 2.9 ± 0.059. MKVEELIIDGFKSYATR [SMC2] gave a protein stability index of 3.11 ± 0.063. For MKVKADRDESSPYAAML [RPS14A], the protein stability index was 3.23 ± 0.048. In the case of MLSAHNIIESIANFSRA [YJR042W/NUP85], the protein stability index is reported as 2.87 ± 0.048. MNFISKEEFIMMVNISV [PCI8] showed a protein stability index of 1.32 ± 0.16. For MNFNTPQQNKTPFSFGT [YJL041W/NSP1], the protein stability index was 2.92 ± 0.061. MNNETSGKETASAPLCS [DLS1] showed a protein stability index of 3.18 ± 0.055. In the case of MNQSSIDRGLFRSLFFR [RPB2], the protein stability index is reported as 2.63 ± 0.26. With MPDEFNTLYTAIITDDL [SRP72] the protein stability index was 2.6 ± 0.035. With MQANKLDSQETPSTEES [SWI3] the protein stability index was 2.39 ± 0.11. Sequence MQTALRRLPEDESYARA [QCR7] has a protein stability index of 2.34 ± 0.05. MQVLNTKSETKQENETM [MED11] showed a protein stability index of 1.41 ± 0.26. MSAKAEKKPASKAPAEK [HTB1] showed a protein stability index of 3.16 ± 0.12. Work on MSDHSLDKLNCAINSKS [RRP6] yielded a protein stability index of 2.59 ± 0.051. Sequence MSESSDISAMQPVNPKP [SMX3] has a protein stability index of 3.4 ± 0.12. Work on MSGYDRALSIFSPDGHI [PRE6] yielded a protein stability index of 2.76 ± 0.09. Sequence MSKITSSQVREHVKELL [RPL1A] has a protein stability index of 2.45 ± 0.093. MSLRHFGHLMHYGNEHI [RPN1] showed a protein stability index of 1.4 ± 0.066. Sequence MSLVVQEQGSFQHILRL [RPS18A] has a protein stability index of 2.65 ± 0.1. In the case of MSNKVKTKAMVPPINCI [SME1], the protein stability index is reported as 2.64 ± 0.05. Work on MSQGQSKKLDVTVEQLR [NSL1] yielded a protein stability index of 2.7 ± 0.056. MSQSTASLVPEGNQGSL [MED8] gave a protein stability index of 2.62 ± 0.096. In the case of MSSTNGNAPATPSSDQN [SOH1], the protein stability index is reported as 3.2 ± 0.058. MSTFIFPGDSFPVDPTT [RRP40] gave a protein stability index of 2.35 ± 0.068. MTDMQIQWYKSLLEKDI [ISW2] showed a protein stability index of 1.74 ± 0.092. With MTLNRKCVVIHNGSHRT [ARP7] the protein stability index was 2.54 ± 0.059. Sequence MTPLLVNCLELLINTNF [PCI8] has a protein stability index of 1.48 ± 0.078. With MTPVIEKIAAGYMQKPV [PRP28] the protein stability index was 1.83 ± 0.14. Sequence MVLFNIYDDWLDRISSY [PRP8] has a protein stability index of 2.19 ± 0.075. For MVMAGSKGSFINIAQMS [RPO21], the protein stability index was 1.25 ± 0.083. In the case of MVNESDGVTHALYPQEA [RPB2], the protein stability index is reported as 3.05 ± 0.067. Sequence MYPSPTGVMIGIDLAYN [PRP8] has a protein stability index of 1.97 ± 0.081. With MYTLSAQDEVFSLAFSP [ASC1] the protein stability index was 2.78 ± 0.059. In the case of NAAGNTPDATKIKAILE [RPP2A], the protein stability index is reported as 2.99 ± 0.085. For NACAKYGRDDMENIKKS [ISW2], the protein stability index was 3.08 ± 0.078. For NADLDVKDELMFSPLVD [RPO21], the protein stability index was 3.15 ± 0.041. For NAGTEKEKESKKDSKPA [YLR335W/NUP2], the protein stability index was 3.54 ± 0.056. Sequence NANAGLFNKPPSTNAQN [YOR098C/NUP1] has a protein stability index of 3.06 ± 0.038. NANTVFAGSNNQPHQSQ [YOR098C/NUP1] showed a protein stability index of 2.89 ± 0.06. Work on NAQQTFHIDHTKPSDLT [RPO21] yielded a protein stability index of 2.69 ± 0.048. NAQSKLSLTLNTHYHAD [SNF2] showed a protein stability index of 2.73 ± 0.13. Sequence NARIYNTEGSVVYEDSL [SNF2] has a protein stability index of 2.92 ± 0.11. Work on NAYGFIEWCSRCNDNLM [YJL039C/NUP192] yielded a protein stability index of 2.75 ± 0.083. NDDALDLDLDLFDPDDF [MED4] showed a protein stability index of 2.81 ± 0.036. NDDSSSMNATMRNFSKQ [YDL088C/ASM4] showed a protein stability index of 2.71 ± 0.13. Sequence NDEPSHKKIKVAQPDSL [SIR2] has a protein stability index of 1.63 ± 0.1. With NDINISSIENNINNNIN [MED2] the protein stability index was 2.86 ± 0.041. NDLGKFIPNKQLNCVID [RPN7] gave a protein stability index of 2.77 ± 0.17. NDLHHSEKKYAEEDQVQ [RPN3] showed a protein stability index of 2.99 ± 0.13. NDLVKARDLLDDLEKTL [RPN9] showed a protein stability index of 3.12 ± 0.091. Work on NDPSAEVRRAAMLNLIN [YCG1] yielded a protein stability index of 2.72 ± 0.26. Sequence NEKLECISLGSTKLSRP [ITC1] has a protein stability index of 2.44 ± 0.047. Work on NENEDEDEGTLNVAEII [ARP9] yielded a protein stability index of 3.34 ± 0.072. Sequence NENKVIIELPNEKFEIE [SRB4] has a protein stability index of 2.94 ± 0.055. In the case of NENNSNGGEDTSVENEG [REC8], the protein stability index is reported as 3.05 ± 0.15. Work on NFAHSDSLSVPKVSAGD [SIR4] yielded a protein stability index of 2.76 ± 0.054. NFALTTLIDLVKHSPGA [ECM29] showed a protein stability index of 1.49 ± 0.15. NFEATKKSVLKQVQDFE [COR1] gave a protein stability index of 3.07 ± 0.15. In the case of NFLIKLSELSPGIMLRQ [YCS4], the protein stability index is reported as 3.1 ± 0.094. NFPEASKLSEHLNHYIL [YCG1] showed a protein stability index of 2.66 ± 0.17. Sequence NFRILKSFTNDKIPLNY [SRB5] has a protein stability index of 2.84 ± 0.04. With NFYRPLLRSVLVLLELV [YML103C/NUP188] the protein stability index was 1.18 ± 0.12. Work on NGEIKGENIDADNDGPR [SNF2] yielded a protein stability index of 3.49 ± 0.063. With NGFHGRLGDLGVIDDSF [SMC4] the protein stability index was 3.11 ± 0.12. Work on NGFMESAIVNEDGLLEG [SOH1] yielded a protein stability index of 2.86 ± 0.23. Work on NGGSEEEITCALDYLIP [MED7] yielded a protein stability index of 3.44 ± 0.098. For NGIPLKSKERSSQFVRL [YMR129W/POM152], the protein stability index was 3.22 ± 0.096. With NGKVQYFLRRQYILQIV [YJL039C/NUP192] the protein stability index was 1.33 ± 0.18. With NGLIISWSNGKITSPIR [RRP42] the protein stability index was 3.2 ± 0.082. In the case of NGNDESSEYETINISLS [NUT1], the protein stability index is reported as 3.06 ± 0.12. With NGTLIGCVSYSPAALKQ [YMR153W/NUP53] the protein stability index was 1.83 ± 0.097. For NGVVKKAAAGAGSAALK [RPO31], the protein stability index was 3.47 ± 0.12. Work on NHDRINISNNLQKALTV [RPN8] yielded a protein stability index of 3.38 ± 0.038. For NHLDELQKKFVTKQSEL [SMC1], the protein stability index was 2.35 ± 0.21. For NIAKDLKWKKGIRGKLV [SMC1], the protein stability index was 2.23 ± 0.12. Work on NIDETSDEVSRGIPRLS [SMC4] yielded a protein stability index of 2.97 ± 0.22. NILWAIYNSASKASMQK [YCS4] gave a protein stability index of 1.58 ± 0.22. Work on NINEVKKASDLVDTPSN [NUT1] yielded a protein stability index of 3.23 ± 0.065. Sequence NIPKPLNSYHIKNGRIY [RGR1] has a protein stability index of 1.97 ± 0.047. NIRSQLLSENRSEKSTT [SRP54] showed a protein stability index of 3.01 ± 0.055. Work on NITDYETHPDNSNKQAV [BRR2] yielded a protein stability index of 2.73 ± 0.037. With NIVDSSAAGNKAIPTFS [YIL149C/MLP2] the protein stability index was 3 ± 0.057. Work on NIWGTVRTNRFDIIEES [ECM29] yielded a protein stability index of 2.54 ± 0.11. Work on NIYNFSPSERIEPLEIN [BRR2] yielded a protein stability index of 1.93 ± 0.056.
